These results are taken from patent publication US20250354131A1, “NOVEL GLYCOSYNTHASE” (CarboCode S.A., priority 2021, published 2025).

Format in all cases: biochemical
Data set [1] in a line: Enzymatic conversion of lactosyl sphingoid bases with β-galactosidase. The following applies: within about 48 to about 72 hours at about 37° C.; 1 M NaOAc pH 5.0, 5 g/L β-cyclodextrin, 5 g/L enzyme. Here is the method: Enzymatic reactions were performed in 1 M NaOAc buffer (pH set to 5.0). A typical reaction mixture contained 50-100 g/L of lactosyl sphingoid base (synthesised according to the general procedure of Example 3 or Example 5), 5 g/L of β-cyclodextrin, 5 g/L of β-galactosidase (e.g. from A. oryzae). Typically, the reaction proceeds up to 99% conversion within about 48 to about 72 hours at about 37° C. and continuous stirring. The enzymatic reaction was followed by LCMS analysis (for methods and conditions see Example 9).
Samples (25 μL) were taken from reaction mixtures, mixed with DMSO (950 μL) and subjected to centrifugation (16.000 rpm, 5 min) and analyzed with a Shimadzu ECO 2020 LC system coupled with a Shimadzu LCMS-2020 system. The HPLC analysis was performed using a Merck Ascentis Express RP-Amide column (15 cm×4.6 mm, 2.7 μm). For analysis of compounds the eluent consisted of solvent D (2 mM ammonium formate, […], 75% v/v MeOH, 25% v/v ACN)-solvent C (2 mM formic acid in filtered ddH2O), and the following gradient was applied as stated in the table below. The flow rate was 1 mL/min. The MS analysis was performed under the following conditions: ESI positive ionization, vaporizer temperature 300° C.; LC-MS mode, 1:1 split of flow; ESI negative ionization, vaporizer temperature 300° C.; LC-MS mode, 1:1 split of flow.

Data set [2] is described as follows: Production of lactosyl-6-hydroxysphingosine: conversion rates of different enzymes. The following applies: 30 mg/mL 6-OH-Sph, 300 mg/mL Lac-F, 1 M NaOAc, pH 6.0, 37° C. How it is done: Reaction contained: 30 mg/mL 6-OH-Sph, 300 mg/mL Lac-F, enzyme, 1 M NaOAc.
Reactions were executed at pH 6.0, 37° C. and 1500 rpm stirring. Product analysis was done by ELSD (% rel. conversion) and LC-MS using standard conditions for Lac-Sph analysis.

Data set [3] can be described thus: Km determination of EGC synthases with lactosyl fluoride and sphingosine (HPLC-ELSD). The conditions noted are these: acceptor sphingosine; for U/mg CFE: Donor Lac-F, cell-free extract; for Fold improvement to reference: relative to reference SEQ ID NO: 17, donor Lac-F. How it is done:
The assay mixture contained 1 M sodium acetate buffer at pH 5.5, 20 mg/mL sphingosine-base and EGCS enzyme. As a reference, EGC synthase of SEQ ID NO:17 was used. Six different concentrations of lactosyl fluoride (Lac-F) ranging from 5 mg/mL to 164 mg/mL were assayed. From every assay mixture, four time points were collected by quenching the reaction with 19× volume of DMSO. The samples were analyzed by HPLC-ELSD analysis and conversion rates were determined by linear regression.

Regarding β-galactosidase, the conversion result in data set [1] is on record as “up to 99%”.

B1: SEQ ID NO: 17: Reference EGC synthase, E351S, D314Y, A153T, Δ1-30, N-term. His-Tag; Rhodococcus sp. strain M-777 (protein)
chain: MGSSHHHHHHSSGLVPRGSHMSGSGSGSGTALTPSYLKDDDGRSLILRGFNTASSAKSAPDGMPQFTEADLAREYADMGTNFVRFLISWRSVEPAPGVYDQQYLDRVEDRVGWYAERGYKVMLDMHQDVYSGAITPEGNSGNGTGAIGNGAPAWATYMDGLPVEPQPRWELYYIQPGVMRAFDNFWNTTGKHPELVEHYAKAWRAVADRFADNDAVVAYDLMNEPFGGSLQGPAFEAGPLAAMYQRTTDAIRQVDQDTWVCVAPQAIGVNQGLPSGLTKIDDPRAGQQRIAYCPHLYPLPLDIGYGHEGLARTLTDVTIDAWRANTAHTARVLGDVPIILGSFGLDTTLPGARDYIERVYGTAREMGAGVSYWSSDPGPWGPYLPDGTQTLLVDTLNKPYPRAVAGTPTEWSSTSDRLQLTIEPDAAITAPTEIYLPEAGFPGDVHVEGADVVGWDRQSRLLTVRTPADSGNVTVTVTPAA
modifications: N-terminal His-tag
For the molecule B1, the “Conversion [% ELSD area product]” value in data set [2] (Time 1 h) came to 99.4 % ELSD area product; in data set [2] (Time 2 h), 100 % ELSD area product. Further, the “U/mg CFE” value in data set [3] came to 0.074 U/mg CFE. For the same molecule, the “Fold improvement to reference” value in data set [3] turned out to be 1.0.

B2: SEQ ID NO: 15: EGC synthase, E339S, Δ1-26; Rhodococcus hoagii 103S (SEQ ID NO: 14) (protein)
chain: MAPPATPITTLQADGTHLVDGYGRTVLLHGVNNVDKDAPYLPAGETLTPQDIDILVRHGFNTVRLGTSFDALMPQRGQIDEAYLDRLTGVVDALTARGMHVLLDNHQDGLSKAWGGNGFPEWAIESRPREWEPNPGFPLYYLMPSLNAGWDEVWGNTHGALDHLGTALGALAERVEGKPGVMGIELLNEPWPGSRFLSCFPNGCPDFDRTYQAAMQKLTDAVRAQNPTIPVYWEPNVTWNQMMPSNLFAPPVTPALTTADVVFAPHDYCIPSQLAIYLGLPQALRGLCVPQQDLTWSNIDAITERANVPTVITSFGDGDPTVLKNTLARADERFIGWQYWHFGAGNATDPFLGEVGRQLVRTYPQATAGEPGRMIFDADNGDFAYRFTPRAATRPTEIFVSDLHYPDGYAVQVDGGQVTSAPGARIVTVVADGSGPVTVKINRPGSAGAEVPDGPIETSSSGSSGSS
In the case of B2, the entries for the “Conversion [% ELSD area product]” value in data set [2] (Time 1 h) and in data set [2] (Time 2 h) were 3.7 % ELSD area product and 9.1 % ELSD area product, respectively.

B3: SEQ ID NO: 18: EGC synthase, E351S, D314Y, Δ1-30, N-term. His-Tag, Δ148-154; Rhodococcus sp. strain M-777 (protein)
chain: MGSSHHHHHHSSGLVPRGSHMSGSGSGSGTALTPSYLKDDDGRSLILRGFNTASSAKSAPDGMPQFTEADLAREYADMGTNFVRFLISWRSVEPAPGVYDQQYLDRVEDRVGWYAERGYKVMLDMHQDVYSGAITPEGAIGNGAPAWATYMDGLPVEPQPRWELYYIQPGVMRAFDNFWNTTGKHPELVEHYAKAWRAVADRFADNDAVVAYDLMNEPFGGSLQGPAFEAGPLAAMYQRTTDAIRQVDQDTWVCVAPQAIGVNQGLPSGLTKIDDPRAGQQRIAYCPHLYPLPLDIGYGHEGLARTLTDVTIDAWRANTAHTARVLGDVPIILGSFGLDTTLPGARDYIERVYGTAREMGAGVSYWSSDPGPWGPYLPDGTQTLLVDTLNKPYPRAVAGTPTEWSSTSDRLQLTIEPDAAITAPTEIYLPEAGFPGDVHVEGADVVGWDRQSRLLTVRTPADSGNVTVTVTPAA
modifications: N-terminal His-tag
As to B3, the figures for the “Conversion [% ELSD area product]” value in data set [2] (Time 1 h) and in data set [2] (Time 2 h) were 99.3 % ELSD area product and 99.8 % ELSD area product, respectively.

B4: SEQ ID NO: 8: EGC synthase, E350S, D312Y, Δ1-24, N-term. His-Tag, Δ146-152; Rhodococcus sp. AQ5-07 (protein)
chain: MGHHHHHHMQGSLPTSGSAGGTDVPPSYLTDDAGRSLILRGFNTASSAKSEPEPGQYDQEYLDRVEDRVSWYAERGYKVMLDMHQDVYSGAITPEGNIGNGAPAWATYMDGLPVSPQDRWELYYIQPGVMRAFDNFWNTTGQHPELVEHYANAWQAVAERFAGNDTVVAYDLMNEPWGGSLQGPAFEGGPLAALYQRTTNAIREVDQDSWVCVAPQAVGVNQGVPSGLTKINDPRAGEQRIAYCPHLYPLPLDLGYGYSGLSRTLTDATIDTWRDSVEHIAGNVLGGVPVILASFGLDTTLPGATDYIDRVYATARELGAGVSYWSSDPGPWGPYLPDGTQTLLVDTLNRPYPRAVAGTPTEWSSSVDRLQLTFTPNPAVTAPTEIYLPESGFPGGVDVAGADIVNWNPQSRLLTVEAPDGMPKFTEADLEREHADMGTNFVRFLISWRSVTADDAGPVTVTVTPAS
modifications: N-terminal His-tag
B4: in data set [2] (Time 1 h), the “Conversion [% ELSD area product]” value was found to be 100 % ELSD area product. Moreover, in data set [2] (Time 2 h), the “Conversion [% ELSD area product]” value is reported as 100 % ELSD area product. In data set [3], the “U/mg CFE” value worked out at 0.60 U/mg CFE and the “Fold improvement to reference” value amounted to 8.1.

B5: SEQ ID NO: 6: EGC synthase, E350S, Δ1-24, N-term. His-Tag, Δ146-152; Rhodococcus sp. AQ5-07 (protein)
chain: MGHHHHHHMQGSLPTSGSAGGTDVPPSYLTDDAGRSLILRGFNTASSAKSEPEPGQYDQEYLDRVEDRVSWYAERGYKVMLDMHQDVYSGAITPEGNIGNGAPAWATYMDGLPVSPQDRWELYYIQPGVMRAFDNFWNTTGQHPELVEHYANAWQAVAERFAGNDTVVAYDLMNEPWGGSLQGPAFEGGPLAALYQRTTNAIREVDQDSWVCVAPQAVGVNQGVPSGLTKINDPRAGEQRIAYCPHLYPLPLDLGDGYSGLSRTLTDATIDTWRDSVEHIAGNVLGGVPVILASFGLDTTLPGATDYIDRVYATARELGAGVSYWSSDPGPWGPYLPDGTQTLLVDTLNRPYPRAVAGTPTEWSSSVDRLQLTFTPNPAVTAPTEIYLPESGFPGGVDVAGADIVNWNPQSRLLTVEAPDGMPKFTEADLEREHADMGTNFVRFLISWRSVTADDAGPVTVTVTPAS
modifications: N-terminal His-tag
With B5, the “Conversion [% ELSD area product]” value in data set [2] (Time 1 h) and in data set [2] (Time 2 h) was 100 % ELSD area product each time.

B6: SEQ ID NO: 4: EGC synthase, E350S, Δ1-24, N-term. His-Tag; Rhodococcus sp. AQ5-07 (protein)
chain: MGHHHHHHMQGSLPTSGSAGGTDVPPSYLTDDAGRSLILRGFNTASSAKSEPEPGQYDQEYLDRVEDRVSWYAERGYKVMLDMHQDVYSGAITPEGNSGNGAGNIGNGAPAWATYMDGLPVSPQDRWELYYIQPGVMRAFDNFWNTTGQHPELVEHYANAWQAVAERFAGNDTVVAYDLMNEPWGGSLQGPAFEGGPLAALYQRTTNAIREVDQDSWVCVAPQAVGVNQGVPSGLTKINDPRAGEQRIAYCPHLYPLPLDLGDGYSGLSRTLTDATIDTWRDSVEHIAGNVLGGVPVILASFGLDTTLPGATDYIDRVYATARELGAGVSYWSSDPGPWGPYLPDGTQTLLVDTLNRPYPRAVAGTPTEWSSSVDRLQLTFTPNPAVTAPTEIYLPESGFPGGVDVAGADIVNWNPQSRLLTVEAPDGMPKFTEADLEREHADMGTNFVRFLISWRSVTADDAGPVTVTVTPAS
modifications: N-terminal His-tag
For B6, in data set [3], the “U/mg CFE” value worked out at 0.20 U/mg CFE and the “Fold improvement to reference” value was determined as 2.7.

B7: SEQ ID NO: 5: EGC synthase, E350S, Δ146-152; Rhodococcus sp. AQ5-07 (protein)
chain: MRRIPLSALIVAGSLILGGGIAAAQGSLPTSGSAGGTDVPPSYLTDDAGRSLILRGFNTASSAKSAPDGMPKFTEADLEREHADMGTNFVRFLISWRSVEPEPGQYDQEYLDRVEDRVSWYAERGYKVMLDMHQDVYSGAITPEGNIGNGAPAWATYMDGLPVSPQDRWELYYIQPGVMRAFDNFWNTTGQHPELVEHYANAWQAVAERFAGNDTVVAYDLMNEPWGGSLQGPAFEGGPLAALYQRTTNAIREVDQDSWVCVAPQAVGVNQGVPSGLTKINDPRAGEQRIAYCPHLYPLPLDLGDGYSGLSRTLTDATIDTWRDSVEHIAGNVLGGVPVILASFGLDTTLPGATDYIDRVYATARELGAGVSYWSSDPGPWGPYLPDGTQTLLVDTLNRPYPRAVAGTPTEWSSSVDRLQLTFTPNPAVTAPTEIYLPESGFPGGVDVAGADIVNWNPQSRLLTVETADDAGPVTVTVTPAS
As for B7, in data set [3], the “U/mg CFE” value is 0.61 U/mg CFE and the “Fold improvement to reference” value turned out to be 8.2.
